In patent US20110263454A1, “Methods of Identifying Functional Characteristics of Promoters, Transcription Modifying Proteins and Transcription Modulating Agents” (Salk Institute for Biological Studies, priority 2008, published 2011):

Legend:
hPOMC promoter = test: NHR-promoter luciferase screen, hPOMC promoter; assay type: cell-based, human; conditions: for Luc. act., normalized to lacZ / Normalized Luc. act., normalized to control: hPOMC promoter, HR/ligand component; for hPOMC promoter reporter activity: transcription factor +/- ligand, control = 1.00
In short: (§1)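 CV-1 cells were co-transfected with 50 ng NHR (homodimer or NHR/RXR heterodimer), 100 ng promoter-luciferase construct and 50 ng LacZ. Luciferase was normalized to LacZ and to a no-NHR/no-ligand control.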

hPPARg2 promoter = test: NHR-promoter luciferase screen, hPPARg2 promoter; assay type: cell-based, human; conditions: for Luc. act., normalized to lacZ / Normalized Luc. act., normalized to control: PPARG2 promoter, hormone receptor with or without its ligand; for Normalized Luc. act., normalized to control: relative to control; for Results of assays of transcription factor (+/- ligand) with hPPARg2: Table 6d, luciferase activity relative to control (control = 1.00)
In short: as §1

mPgc1b promoter = test: NHR-promoter luciferase screen, mPgc1b promoter; assay type: cell-based, mouse; conditions: for Luc. act., normalized to lacZ / Normalized Luc. act., normalized to control: PGC1b promoter reporter, co-transfected HR, without or with its ligand; for Normalized Luc. act., normalized to control: relative to control; for luciferase activity normalized to lacZ activity and to a control, mPgc1b: mPgc1b promoter-luciferase, CV-1 cells, NHR +/- ligand, control = 1.00
In short: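 Luciferase reporter read-out after co-expression in CV-1 cells of V5H6-tagged receptor (alone or with RXR), the promoter construct and LacZ. Values are luciferase/LacZ relative to a control lacking NHR or ligand; orphan receptors tested ligand-free.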

SREBP1c promoter = test: NHR-promoter luciferase screen, SREBP1c promoter; assay type: cell-based, mouse; conditions: for Luc. act., normalized to lacZ / Normalized Luc. act., normalized to control: SREBP1c promoter, HR component without or with ligand; for mSREBP1-c promoter reporter activity: transcription factor +/- ligand, control = 1.00
In short: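 Values are luciferase activity normalised to LacZ (transfection control) and to a control lacking NHR or ligand. Read-out at 48 h in CV-1 cells carrying 100 ng promoter-reporter, 50 ng receptor (alone or with RXR) and 50 ng LacZ.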

hTNFa promoter = test: NHR-promoter luciferase screen, hTNFa promoter; assay type: cell-based, human; conditions: for Luc. act., normalized to lacZ / Normalized Luc. act., normalized to control: TNFa promoter, HR component without or with ligand; for hTNFa promoter reporter activity: transcription factor +/- ligand, control = 1.00
In short: as §1

hMDR1 promoter = test: NHR-promoter luciferase screen, hMDR1 promoter; assay type: cell-based, human; conditions: for Luc. act., normalized to lacZ / Normalized Luc. act., normalized to control: MDR1 promoter, HR/ligand component; for hMDR1 promoter reporter activity: transcription factor +/- ligand, control = 1.00
In short: as §1

| Molecule | Luc. act., normalized to lacZ (hPOMC promoter) | Normalized Luc. act., normalized to control (hPOMC promoter) | hPOMC promoter reporter activity (hPOMC promoter) | Luc. act., normalized to lacZ (hPPARg2 promoter) | Normalized Luc. act., normalized to control (hPPARg2 promoter) | Results of assays of transcription factor (+/- ligand) with hPPARg2 (hPPARg2 promoter) | Luc. act., normalized to lacZ (mPgc1b promoter) | Normalized Luc. act., normalized to control (mPgc1b promoter) | luciferase activity normalized to lacZ activity and to a control, mPgc1b (mPgc1b promoter) | Luc. act., normalized to lacZ (SREBP1c promoter) | Normalized Luc. act., normalized to control (SREBP1c promoter) | mSREBP1-c promoter reporter activity (SREBP1c promoter) | Luc. act., normalized to lacZ (hTNFa promoter) | Normalized Luc. act., normalized to control (hTNFa promoter) | hTNFa promoter reporter activity (hTNFa promoter) | Luc. act., normalized to lacZ (hMDR1 promoter) | Normalized Luc. act., normalized to control (hMDR1 promoter) | hMDR1 promoter reporter activity (hMDR1 promoter) |
| --- | --- | --- | --- | --- | --- | --- | --- | --- | --- | --- | --- | --- | --- | --- | --- | --- | --- | --- |
| FXR: Farnesoid X Receptor (NR1H4), cDNA driver (protein, UniProt Q96RI1 1-486, looked up) Bile acid receptor: MVMQFQGLENPIQISPHCSCTPSGFFMEMMSMKPAKGVLTEQVAGPLGQNLEVEPYSQYSNVQFPQVQPQISSSSYYSNLGFYPQQPEEWYSPGIYELRRMPAETLYQGETEVAEMPVTKKPRMGASAGRIKGDELCVVCGDRASGYHYNALTCEGCKGFFRRSITKNAVYKCKNGGNCVMDMYMRRKCQECRLRKCKEMGMLAECMYTGLLTEIQCKSKRLRKNVKQHADQTVNEDSEGRDLRQVTSTTKSCREKTELTPDQQTLLHFIMDSYNKQRMPQEITNKILKEEFSAEENFLILTEMATNHVQVLVEFTKKLPGFQTLDHEDQIALLKGSAVEAMFLRSAEIFNKKLPSGHSDLLEERIRNSGISDEYITPMFSFYKSIGELKMTQEEYALLTAIVILSPDRQYIKDREAVEKLQEPLLDVLQKLCKIHQPENPQHFACLLGRLTELRTFNHHHAEMLMSWRVNDHKFTPLLCEIWDVQ | 2.8 | 0.6 | 0.65 | 1.8 | 0.9 | 0.89 | 7.82 | 0.7 | 0.66 | 551.0 | 1.7 | 1.71 | 974.6 | 1.0 | 0.99 | 0.2 | 0.6 | 0.61 |
| PXR: Pregnane X Receptor (NR1I2), cDNA driver (protein, UniProt O75469 1-434, looked up) Nuclear receptor subfamily 1 …: MEVRPKESWNHADFVHCEDTESVPGKPSVNADEEVGGPQICRVCGDKATGYHFNVMTCEGCKGFFRRAMKRNARLRCPFRKGACEITRKTRRQCQACRLRKCLESGMKKEMIMSDEAVEERRALIKRKKSERTGTQPLGVQGLTEEQRMMIRELMDAQMKTFDTTFSHFKNFRLPGVLSSGCELPESLQAPSREEAAKWSQVRKDLCSLKVSLQLRGEDGSVWNYKPPADSGGKEIFSLLPHMADMSTYMFKGIISFAKVISYFRDLPIEDQISLLKGAAFELCQLRFNTVFNAETGTWECGRLSYCLEDTAGGFQQLLLEPMLKFHYMLKKLQLHEEEYVLMQAISLFSPDRPGVLQHRVVDQLQEQFAITLKSYIECNRPQPAHRFLFLKIMAMLTELRSINAQHTQRLLRIQDIHPFATPLMQELFGITGS | 4.2 | 1.0 | 0.98 | 1.8 | 0.9 | 0.91 | 10.19 | 0.9 | 0.86 | 486.8 | 1.5 | 1.51 | 1152.4 | 1.2 | 1.17 | 0.3 | 1.1 | 1.10 |
| CAR: Constitutive Androstane Receptor (NR1I3), cDNA driver (protein, UniProt Q14994 1-352, looked up) Nuclear receptor subfamily 1 …: MASREDELRNCVVCGDQATGYHFNALTCEGCKGFFRRTVSKSIGPTCPFAGSCEVSKTQRRHCPACRLQKCLDAGMRKDMILSAEALALRRAKQAQRRAQQTPVQLSKEQEELIRTLLGAHTRHMGTMFEQFVQFRPPAHLFIHHQPLPTLAPVLPLVTHFADINTFMVLQVIKFTKDLPVFRSLPIEDQISLLKGAAVEICHIVLNTTFCLQTQNFLCGPLRYTIEDGARVSPTVGFQVEFLELLFHFHGTLRKLQLQEPEYVLLAAMALFSPDRPGVTQRDEIDQLQEEMALTLQSYIKGQQRRPRDRFLYAKLLGLLAELRSINEAYGYQIQHIQGLSAMMPLLQEICS | 4.3 | 1.0 | 1.00 | 1.3 | 0.6 | 0.63 | 9.21 | 0.8 | 0.78 | 312.9 | 1.0 | 0.97 | 908.2 | 0.9 | 0.92 | 0.2 | 0.7 | 0.68 |
| RXRb: Retinoic X Receptor β (NR2B2), cDNA driver (protein, UniProt P28702 1-533, looked up) Retinoic acid receptor …: MSWAARPPFLPQRHAAGQCGPVGVRKEMHCGVASRWRRRRPWLDPAAAAAAAVAGGEQQTPEPEPGEAGRDGMGDSGRDSRSPDSSSPNPLPQGVPPPSPPGPPLPPSTAPSLGGSGAPPPPPMPPPPLGSPFPVISSSMGSPGLPPPAPPGFSGPVSSPQINSTVSLPGGGSGPPEDVKPPVLGVRGLHCPPPPGGPGAGKRLCAICGDRSSGKHYGVYSCEGCKGFFKRTIRKDLTYSCRDNKDCTVDKRQRNRCQYCRYQKCLATGMKREAVQEERQRGKDKDGDGEGAGGAPEEMPVDRILEAELAVEQKSDQGVEGPGGTGGSGSSPNDPVTNICQAADKQLFTLVEWAKRIPHFSSLPLDDQVILLRAGWNELLIASFSHRSIDVRDGILLATGLHVHRNSAHSAGVGAIFDRVLTELVSKMRDMRMDKTELGCLRAIILFNPDAKGLSNPSEVEVLREKVYASLETYCKQKYPEQQGRFAKLLLRLPALRSIGLKCLEHLFFFKLIGDTPIDTFLMEMLEAPHQLA | – | 0.0 | 0.00 | 1.5 | 0.8 | 0.75 | 11.7 | 1.0 | 0.99 | 544.4 | 1.7 | 1.69 | 1036.3 | 1.1 | 1.05 | 0.1 | 0.3 | 0.28 |
| RXRg: Retinoic X Receptor γ (NR2B3), cDNA driver (protein, UniProt P48443 1-463, looked up) Retinoic acid receptor …: MYGNYSHFMKFPAGYGGSPGHTGSTSMSPSAALSTGKPMDSHPSYTDTPVSAPRTLSAVGTPLNALGSPYRVITSAMGPPSGALAAPPGINLVAPPSSQLNVVNSVSSSEDIKPLPGLPGIGNMNYPSTSPGSLVKHICAICGDRSSGKHYGVYSCEGCKGFFKRTIRKDLIYTCRDNKDCLIDKRQRNRCQYCRYQKCLVMGMKREAVQEERQRSRERAESEAECATSGHEDMPVERILEAELAVEPKTESYGDMNMENSTNDPVTNICHAADKQLFTLVEWAKRIPHFSDLTLEDQVILLRAGWNELLIASFSHRSVSVQDGILLATGLHVHRSSAHSAGVGSIFDRVLTELVSKMKDMQMDKSELGCLRAIVLFNPDAKGLSNPSEVETLREKVYATLEAYTKQKYPEQPGRFAKLLLRLPALRSIGLKCLEHLFFFKLIGDTPIDTFLMEMLETPLQIT | 2.5 | 0.6 | 0.58 | 1.5 | 0.7 | 0.74 | 9.0 | 0.8 | 0.76 | 999.7 | 3.1 | 3.10 | 1025.0 | 1.0 | 1.04 | 0.2 | 0.7 | 0.65 |
| RORb: RAR-related Orphan Receptor β (NR1F2), cDNA driver (protein, UniProt Q92753 1-470, looked up) Nuclear receptor ROR-beta: MCENQLKTKADATAQIEVIPCKICGDKSSGIHYGVITCEGCKGFFRRSQQNNASYSCPRQRNCLIDRTNRNRCQHCRLQKCLALGMSRDAVKFGRMSKKQRDSLYAEVQKHQQRLQEQRQQQSGEAEALARVYSSSISNGLSNLNNETSGTYANGHVIDLPKSEGYYNVDSGQPSPDQSGLDMTGIKQIKQEPIYDLTSVPNLFTYSSFNNGQLAPGITMTEIDRIAQNIIKSHLETCQYTMEELHQLAWQTHTYEEIKAYQSKSREALWQQCAIQITHAIQYVVEFAKRITGFMELCQNDQILLLKSGCLEVVLVRMCRAFNPLNNTVLFEGKYGGMQMFKALGSDDLVNEAFDFAKNLCSLQLTEEEIALFSSAVLISPDRAWLIEPRKVQKLQEKIYFALQHVIQKNHLDDETLAKLIAKIPTITAVCNLHGEKLQVFKQSHPEIVNTLFPPLYKELFNPDCATGCK | 2.2 | 0.5 | 0.52 | 1.8 | 0.9 | 0.89 | 10.7 | 0.9 | 0.90 | 442.5 | 1.4 | 1.37 | 1029.5 | 1.0 | 1.05 | 0.2 | 0.6 | 0.58 |
